Reference: patent US20060045881A1 (University of Texas, published 2006)

Assays:
[1] = target: T1, HLA-A2.1 heavy chain with I125-labeled beta2-microglobulin (heterotrimer complex assay) (human, I125-labeled); assay: dissociation of I125-labeled beta2-microglobulin from heavy chain/peptide/beta2m complex, HPLC gel filtration
T1 construct: Cell-free assay; also called heterotrimer complex of the HLA-A2.1 heavy chain, peptide, and beta2-microglobulin

[2] = target: T2, HLA-A2.1 (HLA-A*0201) on the surface of T2 cells (human)
T2 construct: also called surface HLA-A2.1 on T2

Binder | T1/2 (binding half-life) [1] | FI CCNE2144-152/FI PR1 (fluorescence ratio against PR1) [2]
VLQELNVTV (Synthetic peptide, minimum 95% purity) [PR1 peptide (proteinase 3 aa 169-177, VLQELNVTV)] | 24.3 h | 
RLFPDFFTRV [PR2 peptide (proteinase 3 derived, RLFPDFFTRV as printed in Table 4)] | 2.33 h | 
ILLDWLLEV (also called cyclin E2 peptide) [CCNE2 144-152 (cyclin E2 derived nonameric peptide)] |  | 1.19 ratio
